Results reported in US20200199213A1 (Eli Lilly, published 2020).

Assays:
[1] = molecular target: T1, mouse ANGPTL3/8 complex (mouse, UniProt Q9R182 17-455; Q8R1L8 16-198, limits assumed); assay: SPR, Biacore T200; Ab captured on Human Fab Binder, complex injected; pH 7.4, 25 C
T1 sequence (looked up) 1: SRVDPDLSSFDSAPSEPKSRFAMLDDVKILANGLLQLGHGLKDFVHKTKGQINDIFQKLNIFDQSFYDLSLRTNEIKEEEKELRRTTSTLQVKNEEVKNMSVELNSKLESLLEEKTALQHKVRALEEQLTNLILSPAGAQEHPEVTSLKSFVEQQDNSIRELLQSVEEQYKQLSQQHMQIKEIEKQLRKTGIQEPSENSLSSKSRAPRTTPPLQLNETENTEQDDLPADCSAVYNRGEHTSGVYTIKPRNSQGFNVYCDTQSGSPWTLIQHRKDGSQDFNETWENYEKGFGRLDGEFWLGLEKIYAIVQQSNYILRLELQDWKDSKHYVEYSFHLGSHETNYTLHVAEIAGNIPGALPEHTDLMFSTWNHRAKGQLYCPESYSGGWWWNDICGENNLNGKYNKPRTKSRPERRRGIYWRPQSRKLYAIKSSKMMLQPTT
T1 sequence (looked up) 2: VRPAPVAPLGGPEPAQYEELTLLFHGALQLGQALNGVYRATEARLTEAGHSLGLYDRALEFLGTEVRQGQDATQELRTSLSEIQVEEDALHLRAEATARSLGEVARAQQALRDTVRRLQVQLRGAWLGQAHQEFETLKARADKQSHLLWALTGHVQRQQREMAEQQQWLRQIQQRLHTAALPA

[2] = molecular target: T2, cynomolgus ANGPTL3/8 complex (cynomolgus, UniProt A0A2K5UDC5 17-460; A0A2K5WWS3 22-198); assay: as above
T2 construct: also called cyno ANGPTL3/8
T2 sequence 1: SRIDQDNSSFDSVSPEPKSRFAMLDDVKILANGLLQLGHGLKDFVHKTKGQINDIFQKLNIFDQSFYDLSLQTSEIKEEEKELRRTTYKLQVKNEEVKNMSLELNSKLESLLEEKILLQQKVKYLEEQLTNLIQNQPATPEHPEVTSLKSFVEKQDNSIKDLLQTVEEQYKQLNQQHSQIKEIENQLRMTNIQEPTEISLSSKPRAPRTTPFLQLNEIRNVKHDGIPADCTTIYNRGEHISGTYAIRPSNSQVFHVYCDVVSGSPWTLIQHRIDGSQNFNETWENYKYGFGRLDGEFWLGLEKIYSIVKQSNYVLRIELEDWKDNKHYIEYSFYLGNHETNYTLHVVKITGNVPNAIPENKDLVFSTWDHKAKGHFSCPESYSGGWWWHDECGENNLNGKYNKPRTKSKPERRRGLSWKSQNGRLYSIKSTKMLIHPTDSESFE
T2 sequence 2: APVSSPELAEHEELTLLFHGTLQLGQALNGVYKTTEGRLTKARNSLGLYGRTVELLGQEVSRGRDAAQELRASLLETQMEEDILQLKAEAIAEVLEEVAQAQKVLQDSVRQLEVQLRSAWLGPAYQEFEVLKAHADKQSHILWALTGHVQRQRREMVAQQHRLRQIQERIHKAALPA

[3] = molecular target: T3, human ANGPTL3/8 complex (human, UniProt Q9Y5C1 17-460; Q6UXH0 22-198, limits assumed); assay: as above
T3 construct: also called hANGPTL3/8 complex; ANGTPL3/8 complex
T3 sequence 1: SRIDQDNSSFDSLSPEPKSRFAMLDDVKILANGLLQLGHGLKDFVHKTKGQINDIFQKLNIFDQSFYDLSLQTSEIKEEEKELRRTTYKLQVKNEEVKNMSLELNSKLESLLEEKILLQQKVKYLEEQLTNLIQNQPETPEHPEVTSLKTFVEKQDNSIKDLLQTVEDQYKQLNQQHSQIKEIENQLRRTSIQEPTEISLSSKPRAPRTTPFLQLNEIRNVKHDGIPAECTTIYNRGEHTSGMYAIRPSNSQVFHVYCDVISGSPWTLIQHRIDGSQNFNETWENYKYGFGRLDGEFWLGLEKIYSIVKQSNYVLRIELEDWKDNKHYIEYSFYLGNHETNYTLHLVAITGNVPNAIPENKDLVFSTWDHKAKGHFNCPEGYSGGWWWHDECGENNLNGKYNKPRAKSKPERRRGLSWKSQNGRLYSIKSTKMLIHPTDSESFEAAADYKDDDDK
T3 sequence 2: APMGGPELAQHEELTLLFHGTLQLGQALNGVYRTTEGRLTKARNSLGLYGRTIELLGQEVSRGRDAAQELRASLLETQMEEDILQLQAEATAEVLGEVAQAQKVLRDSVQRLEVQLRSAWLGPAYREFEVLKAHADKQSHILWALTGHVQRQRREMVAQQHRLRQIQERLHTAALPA

[4] = molecular target: rat ANGPTL3/8 complex (rat, UniProt F7FHP0 17-446); assay: cell-based or functional assay
[5] = molecular target: T1, mouse ANGPTL3/8 complex; assay: cell-based or functional assay
[6] = molecular target: T2, cynomolgus ANGPTL3/8 complex; assay: cell-based or functional assay
[7] = molecular target: T3, human ANGPTL3/8 complex; assay: cell-based or functional assay

Sequence of rat ANGPTL3/8 complex (F7FHP0 entry or part of it, one chain of several): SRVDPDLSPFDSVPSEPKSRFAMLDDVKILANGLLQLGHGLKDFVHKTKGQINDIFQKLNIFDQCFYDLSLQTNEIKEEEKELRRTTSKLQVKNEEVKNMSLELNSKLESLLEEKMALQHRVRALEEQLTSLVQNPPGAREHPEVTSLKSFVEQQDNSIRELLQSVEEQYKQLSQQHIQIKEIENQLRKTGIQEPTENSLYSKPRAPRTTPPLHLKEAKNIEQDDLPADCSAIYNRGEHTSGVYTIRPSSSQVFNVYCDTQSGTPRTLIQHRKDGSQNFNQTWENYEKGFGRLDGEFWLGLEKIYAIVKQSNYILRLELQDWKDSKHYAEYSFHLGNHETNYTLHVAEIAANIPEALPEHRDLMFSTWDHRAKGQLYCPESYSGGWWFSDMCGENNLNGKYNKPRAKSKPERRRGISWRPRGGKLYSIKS

Kd [1]: 0.366 nM
koff [1]: 0.000172 s⁻¹
kon [1]: 475000 M⁻¹ s⁻¹
Kd [2]: 0.213 nM
koff [2]: 9.91e-05 s⁻¹
kon [2]: 491000 M⁻¹ s⁻¹
Kd [3]: 0.135 nM
koff [3]: 6.31e-05 s⁻¹
kon [3]: 477000 M⁻¹ s⁻¹
% Max Derepression of LPL [4]: 105%
Ab EC50 (nM), derepression of LPL [4]: 2.77 nM
% Max Derepression of LPL [5]: 103%
Ab EC50 (nM), derepression of LPL [5]: 1.38 nM
% Max Derepression of LPL [6]: 96%
Ab EC50 (nM), derepression of LPL [6]: 1.31 nM
% Max Derepression of LPL [7]: 102%
Ab EC50 (nM), derepression of LPL [7]: 0.28 nM
B1: anti-ANGPTL3/8 complex Ab having a LC of SEQ ID NO:5 and a HC of SEQ ID NO:6 (antibody, human IgG4 S228P, kappa, F234A L235A, V domains shown)
VH: QVTLKESGPTLVKPTQTLTLTCTFSGFSLSISGVGVGWIRQPPGKALEWLALIYRNDDKRYSPSLKSRLTITKDTSKNQVVLTLTNMDPVDTATYYCARTYSSGWYGNWFDPWGQGTLVTVSS
VL: DIVMTQTPLSLPVTPGEPASISCRSSQSLLDSDDGNTYLDWYLQKPGQSPQLLIYMLSYRASGVPDRFSGSGSGTDFTLKISRVEAEDVGIYYCMQRIEFPLTFGGGTKVEIKR
notes: In the ELISA assays tested as IgG from CHO supernatants; also called the Ab
